The record followed here is publication PMC3594540 (Nature structural & molecular biology, 2013).

T1: murine Gαq (residues 7–359), biotinylated for bead binding (murine, UniProt P21279 7-359)
T1 sequence: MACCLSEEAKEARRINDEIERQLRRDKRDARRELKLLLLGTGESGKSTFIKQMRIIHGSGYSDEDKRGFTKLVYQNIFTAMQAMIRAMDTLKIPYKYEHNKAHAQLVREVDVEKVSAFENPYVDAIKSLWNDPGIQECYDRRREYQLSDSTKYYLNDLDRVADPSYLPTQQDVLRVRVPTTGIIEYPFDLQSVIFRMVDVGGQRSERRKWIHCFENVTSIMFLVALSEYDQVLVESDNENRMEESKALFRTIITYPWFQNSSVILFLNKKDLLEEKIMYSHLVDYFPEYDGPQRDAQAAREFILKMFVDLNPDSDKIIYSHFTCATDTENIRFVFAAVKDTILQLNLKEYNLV

B1: human PLCβ3 (residues 10–1234) (enzyme)
chain: ALQLEPPTVVETLRRGSKFIKWDEETSSRNLVTLRVDPNGFFLYWTGPNMEVDTLDISSIRDTRTGRYARLPKDPKIREVLGFGGPDARLEEKLMTVVSGPDPVNTVFLNFMAVQDDTAKVWSEELFKLAMNILAQNASRNTFLRKAYTKLKLQVNQDGRIPVKNILKMFSADKKRVETALESCGLKFNRSESIRPDEFSLEIFERFLNKLCLRPDIDKILLEIGAKGKPYLTLEQLMDFINQKQRDPRLNEVLYPPLRPSQARLLIEKYEPNQQFLERDQMSMEGFSRYLGGEENGILPLEALDLSTDMTQPLSAYFINSSHNTYLTAGQLAGTSSVEMYRQALLWGCRCVELDVWKGRPPEEEPFITHGFTMTTEVPLRDVLEAIAETAFKTSPYPVILSFENHVDSAKQQAKMAEYCRSIFGDALLIEPLDKYPLAPGVPLPSPQDLMGRILVKNKKRHRPSAGGPDSAGRKRPLEQSNSALSESSAATEPSSPQLGSPSSDSCPGLSNGEEVGLEKPSLEPQKSLGDEGLNRGPYVLGPADREDEEEDEEEEEQTDPKKPTTDEGTASSEVNATEEMSTLVNYIEPVKFKSFEAARKRNKCFEMSSFVETKAMEQLTKSPMEFVEYNKQQLSRIYPKGTRVDSSNYMPQLFWNVGCQLVALNFQTLDVAMQLNAGVFEYNGRSGYLLKPEFMRRPDKSFDPFTEVIVDGIVANALRVKVISGQFLSDRKVGIYVEVDMFGLPVDTRRKYRTRTSQGNSFNPVWDEEPFDFPKVVLPTLASLRIAAFEEGGKFVGHRILPVSAIRSGYHYVCLRNEANQPLCLPALLIYTEASDYIPDDHQDYAEALINPIKHVSLMDQRARQLAALIGESEAQAGQETCQDTQSQQLGSQPSSNPTPSPLDASPRRPPGPTTSPASTSLSSPGQRDDLIASILSEVAPTPLDELRGHKALVKLRSRQERDLRELRKKHQRKAVTLTRRLLDGLAQAQAEGRCRLRPGALGGAADVEDTKEGEDEAKRYQEFQNRQVQSLLELREAQVDAEAQRRLEHLRQALQRLREVVLDANTTQFKRLKEMNEREKKELQKILDRKRHNSISEAKMRDKHKKEAELTEINRRHITESVNSIRRLEEAQKQRHDRLVAGQQQVLQQLAEEEPKLLAQLAQECQEQRARLPQEIRRSLLGEMPEGLGDGPLVACASNGHAPGSSGHLSGADSESQEENTQL
B2: TEV-cleaved murine Gαq (residues 7–359) (natural protein)
chain: T1 sequence
modifications: at least a fraction of the purified Gαq was palmitoylated (Cys9 and Cys10)
B3: Gαq-ΔN (domain or fragment)
chain: RRELKLLLLGTGESGKSTFIKQMRIIHGSGYSDEDKRGFTKLVYQNIFTAMQAMIRAMDTLKIPYKYEHNKAHAQLVREVDVEKVSAFENPYVDAIKSLWNDPGIQECYDRRREYQLSDSTKYYLNDLDRVADPSYLPTQQDVLRVRVPTTGIIEYPFDLQSVIFRMVDVGGQRSERRKWIHCFENVTSIMFLVALSEYDQVLVESDNENRMEESKALFRTIITYPWFQNSSVILFLNKKDLLEEKIMYSHLVDYFPEYDGPQRDAQAAREFILKMFVDLNPDSDKIIYSHFTCATDTENIRFVFAAVKDTILQLNLKEYNLV
modifications: biotinylated (b-Gαq, in the FCPIA)

Assay [1] has as its target T1, murine Gαq (residues 7–359), …. The assay is described as follows: flow cytometry protein interaction assay.
In assay [2] the target is B1. The assay is described as follows: crystal structure.
In assay [3] the target is B1. Briefly: cell-based or functional assay.

With B1, the affinity in assay [1], expressed as Ki, was 220 nM.

B2: the binding result in assay [2] is listed as “binds”.

Take B3: in assay [3], the “EC50 of Gαq-stimulated PIP2 hydrolysis ([3H]-IP3 release from liposomes)” value is 39 nM and the “Max specific activity of Gαq-stimulated PIP2 hydrolysis (liposomes)” value was found to be 1600 nmol IP3/min/nmol PLCβ3.
